The values below come from patent US20140256820A1, “THERAPEUTIC AGENT FOR BLOOD-BRAIN BARRIER DISRUPTION SYNDROME” (FUKUOKA UNIVERSITY, priority 2010, published 2014).

The series deals with rat brain endothelial cells: RBECs. The series is classed as cell-based.

Description: Thus, a “t-PA-induced BBB dysfunction model” was prepared by the loading of ischemia and t-PA onto an in vitro BBB model. […] The resulting sample was left for 48 hours under 95% N2/5% CO2 (ischemia) conditions. Then, the permeability test was conducted.

As for “t-PA: tissue plasminogen activator, a thrombolytic drug for cerebral infarction; t-PA injection (Activacin; Kyowa Hakko Kirin Co., Ltd.)”, the “permeability of albumin (Evans blue-albumin: EBA) on loading of t-PA under ischemic conditions” value was “increased the permeability” and the “permeability of fluorescein sodium on loading of t-PA under ischemic conditions” value was “increased the permeability”.
